Patent publication US6015555, “Transferrin receptor specific antibody-neuropharmaceutical or diagnostic agent conjugates” (Alkermes, Inc., dated 2000)
Blank lines part the entries; values can stand above or below the molecule they belong to.

Experiments:
rat transferrin receptor [1] = target: T1, rat transferrin receptor (rat, UniProt Q99376)
rat transferrin receptor [2] = target: T1, rat transferrin receptor; remark: listed apart in the source
rat transferrin receptor [3] = target: T1, rat transferrin receptor; remark: listed apart in the source
rat transferrin receptor [4] = target: T1, rat transferrin receptor; assay: immunohistochemistry on rat brain sections (brain capillary endothelial cells)
Excerpt: Biodistribution and Brain Uptake of Anti-Human Transferrin Receptor Antibodies in Cynomolgous Monkeys A collection of 32 murine monoclonal antibodies which recognize various epitopes on the human transferrin receptor were examined for reactivity with brain capillary endothelial cells in sections from human, monkey (cynomolgous), rat and rabbit brain samples by the immunohistochemical methods described in Example 1. These antibodies were obtained from Dr. Ian Trowbridge of the Salk Institute, LaJolla, Calif. […] Two antibodies reacted very weakly with rabbit brain capillaries and none reacted with rat. […] These 2 antibodies are herewithin referred to as 128.1 and Z35.2.

[5] = target: transferrin receptor on monkey (cynomolgous) brain capillaries (monkey (cynomolgous))

percent of the injected dose of 14C-labelled antibody in the brain (% of the injected dose) (rat transferrin receptor [1]): 0.9
distribution of radiolabelled antibody between brain capillary fraction and parenchyma fraction (capillary depletion) (rat transferrin receptor [2]): 0.36 % ID
Molecule: OX-26 murine monoclonal antibody

distribution of 3H-MTX label between brain capillary fraction and parenchyma fraction (capillary depletion) (rat transferrin receptor [3]): 4.5 fold
Molecule: OX-26-methotrexate (MTX) conjugate linked via a gamma-hydrazid (antibody)

binding result (rat transferrin receptor [4]): no binding
share of 14C-labelled antibody in the brain parenchyma (capillary depletion) 24 hours after injection into a cynomolgous monkey [5]: 90%
B1: murine monoclonal antibody 128.1 (antibody, V domains shown)
VH: EVQLQQSGPELVKPGASMKISCKASGYSFTGYTMNWVKQSHGENLEWIGRINPHNGGTDYNQKFKDKAPLTVDKSSNTAYMELLSLTSGDSAVYYCARGYYYYSLDYWGQGTSVTVSS
VL: QIVLTQSPAIMSVSPGEKVTMTCSASSSIRYIHWYQQRPGTSPKRWIYDTSNLASGVPARFSGSGSGTSYSLTISSMEAEDAATYYCHQRNSYPWTFGGGTRLEIR
